According to PMC9427990, “Dynamic mechanisms of CRISPR interference by Escherichia coli CRISPR-Cas3”:
Positions count from the first letter of the chain named.

B1: EMX1-AAG-32-bio (n32, paired PAM) (dsDNA)
DNA 1: TGGCGCATTGCCACGAAGCAGGCCAATGGGGAGGACATCGATGTCACCTCCAATGACTAG
DNA 2: CTAGTCATTGGAGGTGACATCGATGTCCTCCCCATTGGCCTGCTTCGTGGCAATGCGCCA
B2: EMX1-AAG-0-bio (n0) (dsDNA)
DNA 1: TGGCGCATTGCCACGAAGACTTAACCGTTTTCTTCACGATCGTGACAAGACAATGACTAG
DNA 2: CTAGTCATTGTCTTGTCACGATCGTGAAGAAAACGGTTAAGTCTTCGTGGCAATGCGCCA
B3: EMX1-AAG-6-bio (n6) (dsDNA)
DNA 1: B2 DNA 1 with A19C, C20A, T21G, T22G, A23C, A24C
DNA 2: B2 DNA 2 with T37G, T38G, A39C, A40C, G41T, T42G
B4: EMX1-AAG-12-bio (n12) (dsDNA)
DNA 1: TGGCGCATTGCCACGAAGCAGGCCAATGGGTCTTCACGATCGTGACAAGACAATGACTAG
DNA 2: CTAGTCATTGTCTTGTCACGATCGTGAAGACCCATTGGCCTGCTTCGTGGCAATGCGCCA

target: T1, EcoCascade-crRNA(EMX1) (Escherichia coli, UniProt Q46901;P76632;Q46899;Q46898;Q46897 1-502;1-160;2-363;1-224;2-199); assay: BLI; BLI: PBS, 0.01% Tween 20, 0.02% BSA, 20 uM EcoCascade analyte, biotinylated DNA on streptavidin; temperature not stated; EMSA conditions not in material; details: protein: recombinant; tags: hexahistidine tag on Cas11, removed with HRV3C; copies: 1;2;6;1;1; label: Biotin-TEG; blunt
T1 sequence 1: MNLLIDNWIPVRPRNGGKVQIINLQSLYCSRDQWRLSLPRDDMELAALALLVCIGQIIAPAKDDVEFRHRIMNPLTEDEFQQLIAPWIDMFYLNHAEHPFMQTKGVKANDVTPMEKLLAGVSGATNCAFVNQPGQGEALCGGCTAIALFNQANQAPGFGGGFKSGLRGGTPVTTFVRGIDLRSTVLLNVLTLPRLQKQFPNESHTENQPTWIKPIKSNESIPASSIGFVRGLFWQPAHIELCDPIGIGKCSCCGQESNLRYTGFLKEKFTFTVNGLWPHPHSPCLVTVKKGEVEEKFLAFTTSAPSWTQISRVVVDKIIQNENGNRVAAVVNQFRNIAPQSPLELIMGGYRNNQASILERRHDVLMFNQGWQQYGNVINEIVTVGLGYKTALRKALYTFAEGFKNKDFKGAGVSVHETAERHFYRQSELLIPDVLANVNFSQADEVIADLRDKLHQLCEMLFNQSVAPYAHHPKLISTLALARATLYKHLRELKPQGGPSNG
T1 sequence 2: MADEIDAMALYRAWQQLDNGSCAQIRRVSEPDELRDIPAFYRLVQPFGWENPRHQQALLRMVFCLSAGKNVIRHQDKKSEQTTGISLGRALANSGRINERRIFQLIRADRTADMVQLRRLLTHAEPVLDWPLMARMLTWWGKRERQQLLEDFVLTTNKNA
T1 sequence 3: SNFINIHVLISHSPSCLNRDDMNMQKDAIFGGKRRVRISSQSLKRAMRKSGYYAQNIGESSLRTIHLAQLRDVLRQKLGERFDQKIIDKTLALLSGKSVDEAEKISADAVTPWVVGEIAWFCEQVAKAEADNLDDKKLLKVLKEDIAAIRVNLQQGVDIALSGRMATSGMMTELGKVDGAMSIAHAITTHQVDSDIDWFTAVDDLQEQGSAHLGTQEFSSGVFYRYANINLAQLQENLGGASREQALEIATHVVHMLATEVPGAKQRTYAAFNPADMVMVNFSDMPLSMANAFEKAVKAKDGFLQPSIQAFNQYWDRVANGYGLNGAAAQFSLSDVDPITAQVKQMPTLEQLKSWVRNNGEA
T1 sequence 4: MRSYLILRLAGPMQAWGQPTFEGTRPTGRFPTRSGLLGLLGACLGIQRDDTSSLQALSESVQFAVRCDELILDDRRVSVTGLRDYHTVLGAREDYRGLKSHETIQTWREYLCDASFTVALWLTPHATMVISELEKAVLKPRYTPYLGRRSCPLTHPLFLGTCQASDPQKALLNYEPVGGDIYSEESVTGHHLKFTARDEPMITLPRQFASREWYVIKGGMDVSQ
T1 sequence 5: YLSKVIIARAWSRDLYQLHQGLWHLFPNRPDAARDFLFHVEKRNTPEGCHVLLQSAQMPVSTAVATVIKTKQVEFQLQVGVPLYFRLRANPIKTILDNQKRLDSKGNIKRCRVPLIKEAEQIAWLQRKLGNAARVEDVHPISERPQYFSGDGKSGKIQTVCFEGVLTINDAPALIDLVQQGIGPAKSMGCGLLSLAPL

Does B1 bind?
Result: binds

Does B2 bind?
Result: no binding

Does B3 bind?
Result: no binding

Does B4 bind?
Result: no binding
